Reference: US20200317768A1 (published 2020)
Numbering of substitutions follows the chain as printed. Names may count otherwise.

T1: human FcγRIIb extracellular domain, C-terminal His-tag (human, UniProt P31994 43-217)
T1 construct: also called humanFcgRIIb; not shown: His-tag added to C-terminus
T1 sequence: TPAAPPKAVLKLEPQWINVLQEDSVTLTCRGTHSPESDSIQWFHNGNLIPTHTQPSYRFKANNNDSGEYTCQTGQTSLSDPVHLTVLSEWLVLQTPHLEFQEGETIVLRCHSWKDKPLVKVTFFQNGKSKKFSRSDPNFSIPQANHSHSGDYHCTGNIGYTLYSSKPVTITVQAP

T2: human FcγRIIaR extracellular domain, C-terminal His-tag (human, UniProt P12318 34-217)
T2 construct: also called human FcγRIIa (type R); FcgRIIaR; not shown: His-tag added to C-terminus
T2 chain: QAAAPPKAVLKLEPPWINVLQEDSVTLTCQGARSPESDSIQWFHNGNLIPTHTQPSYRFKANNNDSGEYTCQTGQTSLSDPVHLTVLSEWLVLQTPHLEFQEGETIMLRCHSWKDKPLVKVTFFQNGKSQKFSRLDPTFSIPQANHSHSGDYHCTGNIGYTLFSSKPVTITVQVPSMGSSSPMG

T3: human FcγRIIaH extracellular domain, C-terminal His-tag (human, UniProt P12318 34-217)
T3 construct: also called human FcγRIIa (type H); FcgRIIaH; not shown: His-tag added to C-terminus
T3 sequence: T2 chain with R134H

T4: cynomolgus monkey FcγRIIa3 extracellular domain, C-terminal His-tag (cynomolgus monkey)
T4 construct: also called cyno FcγRIIa3; cynoFcgRIIa3; not shown: His-tag added to C-terminus
T4 chain: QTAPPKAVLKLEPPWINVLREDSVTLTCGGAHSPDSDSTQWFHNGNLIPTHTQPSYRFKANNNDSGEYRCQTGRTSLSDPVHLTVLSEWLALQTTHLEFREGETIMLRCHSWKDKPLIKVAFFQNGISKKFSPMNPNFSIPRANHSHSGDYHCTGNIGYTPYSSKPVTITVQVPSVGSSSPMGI

T5: cynomolgus monkey FcγRIIa1 extracellular domain, C-terminal His-tag (cynomolgus monkey)
T5 construct: also called cyno FcγRIIa1; cynoFcgRIIa1; not shown: His-tag added to C-terminus
T5 chain: T4 chain with T95P, A121T, S128A, P133H, N135D

T6: cynomolgus monkey FcγRIIa2 extracellular domain, C-terminal His-tag (cynomolgus monkey)
T6 construct: also called cyno FcγRIIa2; cynoFcgRIIa2; not shown: His-tag added to C-terminus
T6 chain: T4 chain with I127K, K130N, P133H, R142Q

T7: cynomolgus monkey FcγRIIb extracellular domain, C-terminal His-tag (cynomolgus monkey)
T7 construct: also called cyno FcγRIIb; cynoFcγRIIb; not shown: His-tag added to C-terminus
T7 chain: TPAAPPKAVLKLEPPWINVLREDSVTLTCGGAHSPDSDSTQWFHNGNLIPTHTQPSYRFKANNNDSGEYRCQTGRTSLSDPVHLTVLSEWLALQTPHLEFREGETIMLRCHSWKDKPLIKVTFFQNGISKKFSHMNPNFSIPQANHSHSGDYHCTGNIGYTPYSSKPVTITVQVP

B1: M103205H795-SG1034 / M103202L889-SK1 (antibody, human IgG1, kappa)
heavy: QVTLKESGPVLVKPTETLTLTCTVSGIDLSHDDISWVRQAPGKGLEWVGIISYAGSTYYASWAKGRLTISKDTSKNQVVLTMTNMDPVDTATYYCARGVPAYSHGGDLWGQGTLVTVSSASTKGPSVFPLAPSSKSTSGGTAALGCLVKDYFPEPVTVSWNSGALTSGVHTFPAVLQSSGLYSLSSVVTVPSSSLGTQTYICNVNHKPSNTKVDKKVEPKSCDKTHTCPPCPAPELLTGPSVFLFPPKPKDTLMISRTPEVTCVVVDVSDEDPEVKFNWYVDGVEVHNAKTKPREEQYNSTYRVVSVLTVLHRDWLNGKEYKCKVSNKALPKPIEKTISKAKGQPREPQVYTLPPSREEMTKNQVSLTCLVKGFYPSDIAVEWESNGQPENNYKTTPPVLDSDGSFFLYSKLTVKKSRWQQGNVFSCSVMHEALHAHYTQKSLSLSP
light: DIVMTQSPATLSLSPGERATLSCTSSQSVYHANWLSWFQQKPGQPPKLLIYWASTLAYGVPSRFSGSGSGTDFTLTISSLQPEDAATYYCAGGYGGGRYAFGQGTKVEIKRTVAAPSVFIFPPSDEQLKSGTASVVCLLNNFYPREAKVQWKVDNALQSGNSQESVTEQDSKDSTYSLSSTLTLSKADYEKHKVYACEVTHQGLSSPVTKSFNRGEC
notes: CH with G236T/H268D/Q311R/A330K/D413K/N434A against SG1 (EU numbering); also called MS1032LO06-SG1034
B2: MS_M103240H795-SG1/M103202L1045-SK1 (antibody, human IgG1, kappa)
heavy: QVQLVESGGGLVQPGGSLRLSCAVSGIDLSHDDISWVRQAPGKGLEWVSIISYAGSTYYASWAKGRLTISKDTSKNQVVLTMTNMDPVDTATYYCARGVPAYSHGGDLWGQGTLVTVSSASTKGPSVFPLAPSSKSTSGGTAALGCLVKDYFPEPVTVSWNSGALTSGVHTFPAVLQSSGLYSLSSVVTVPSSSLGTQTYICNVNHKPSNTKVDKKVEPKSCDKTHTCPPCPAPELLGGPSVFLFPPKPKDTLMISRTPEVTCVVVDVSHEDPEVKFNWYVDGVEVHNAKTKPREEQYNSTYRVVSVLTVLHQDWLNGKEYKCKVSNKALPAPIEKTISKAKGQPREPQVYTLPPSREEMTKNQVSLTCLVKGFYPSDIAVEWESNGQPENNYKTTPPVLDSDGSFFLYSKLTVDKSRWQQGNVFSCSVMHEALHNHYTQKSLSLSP
light: B1 light with S25T, A32E
notes: Parent of the MS1032LO19 Fc variants; also called MS1032LO19-SG1; MS103240H795-SG1
B3: M103240H795-SG1074 / M103202L1045-SK1 (antibody)
heavy: QVQLVESGGGLVQPGGSLRLSCAVSGIDLSHDDISWVRQAPGKGLEWVSIISYAGSTYYASWAKGRLTISKDTSKNQVVLTMTNMDPVDTATYYCARGVPAYSHGGDLWGQGTLVTVSSASTKGPSVFPLAPSSKSTSGGTAALGCLVKDYFPEPVTVSWNSGALTSGVHTFPAVLQSSGLYSLSSVVTVPSSSLGTQTYICNVNHKPSNTKVDKKVEPKSCDKTHTCPPCPAPELLNGPSVFLFPPKPKDTLMISRTPEVTCVVVDVSDEDPEVKFNWYVDGVEVHNAKTKPREELYNSTYRVVSVLTVLHRDWLNGKEYKCKVSNTALPKPIEKTISKAKGQRREPQVYTLPPSREEMTKNQVSLTCLVKGFYPSDIAVEWESNGQPENNYKTTPPVLDSDGSFFLYSKLTVDKSRWQQGNVFSCSVLHEALHAHTTRKELSLSP
light: B1 light with S25T, A32E
notes: CH with G236N/H268D/Q295L/Q311R/K326T/A330K/P343R/M428L/N434A/Y436T/Q438R/S440E against SG1 (EU numbering); also called MS1032LO19-SG1074
B4: M103240H795-SG1071 / M103202L1045-SK1 (antibody)
heavy: B3 heavy with T328K, R345P, D415K
light: B1 light with S25T, A32E
notes: CH with G236N/H268D/Q295L/Q311R/A330K/D413K/M428L/N434A/Y436T/Q438R/S440E against SG1 (EU numbering); also called MS1032LO19-SG1071

What follows are binders tested against T1, human FcγRIIb extracellular domain, … (assay: SPR (BIACORE), antibody captured, FcγR analyte).
Experimental: (§1) The kinetic analysis of interactions between these antibodies and FcγR was carried out using BIACORE® T200 or BIACORE® 4000 (GE Healthcare). HBS-EP+ (GE Healthcare) was used as the running buffer, and the measurement temperature was set to 25° C. A chip produced by immobilizing Protein A. Protein A/G or mouse anti-human IgG kappa light chain (BD Biosciences) onto a Series S Sensor Chip CM4 or CM5 (GE Healthcare) by the amine-coupling method was used. […] After the measurement, the antibody captured on the chip was washed off by allowing reaction with 10 mM glycine-HCl, pH1.5 and 25 mM NaOH so that the chip was regenerated and used repeatedly. The sensorgrams obtained as measurement results were analyzed by the 1:1 Langmuir binding model using the BIACORE® Evaluation Software to calculate the binding rate constant ka (L/mol/s) and dissociation rate constant kd (l/s), and the dissociation constant KD (mol/L) was calculated from these values. […] Regarding such interactions, KD values were calculated using the following 1:1 binding model described in BIACORE® T100 Software Handbook BR1006-48 Edition AE.

| Binder | Kd [nM] |
| --- | --- |
| B1 | 2600 |
| B2 | 3800 |
| B3 | 380 |
| B4 | 680 |

These binders were tested against T8, cynomolgus monkey FcγRIIIaS extracellular domain, C-terminal His-tag (cynomolgus monkey, UniProt A3RFZ7 21-206 (rhesus entry)) (assay: SPR (BIACORE), antibody captured, FcγR analyte).
T8 construct: also called cyno FcγRIIIaS; cynoFcγRIIIaS; not shown: His-tag added to C-terminus
Experimental: as §1

T8 sequence (A3RFZ7 21-206): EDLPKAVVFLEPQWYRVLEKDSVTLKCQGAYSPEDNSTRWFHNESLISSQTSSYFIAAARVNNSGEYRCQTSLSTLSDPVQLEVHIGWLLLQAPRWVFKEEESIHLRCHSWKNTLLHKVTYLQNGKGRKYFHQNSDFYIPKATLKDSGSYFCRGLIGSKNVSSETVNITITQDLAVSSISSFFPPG

| Binder | Kd [nM] |
| --- | --- |
| B1 | 2200 |
| B2 | 260 |
| B3 | 1400 |
| B4 | 5800 |

Biological target: T2, human FcγRIIaR extracellular domain, …
Experiment: SPR (BIACORE), antibody captured, FcγR analyte
Experimental: as §1

| Binder | Kd [nM] |
| --- | --- |
| B1 | 250 |
| B2 | 960 |
| B3 | 540 |
| B4 | 1200 |

These binders were tested against T3, human FcγRIIaH extracellular domain, … (assay: SPR (BIACORE), antibody captured, FcγR analyte).
Experimental: as §1

| Binder | Kd [nM] |
| --- | --- |
| B1 | 810 |
| B2 | 970 |
| B3 | 450 |
| B4 | 690 |

Biological target: T4, cynomolgus monkey FcγRIIa3 …
Experiment: SPR (BIACORE), antibody captured, FcγR analyte
Experimental: as §1

| Binder | Kd [nM] |
| --- | --- |
| B1 | 4200 |
| B2 | 6600 |
| B3 | 1100 |
| B4 | 2100 |

Biological target: T5, cynomolgus monkey FcγRIIa1 …
Experiment: SPR (BIACORE), antibody captured, FcγR analyte
Experimental: as §1

| Binder | Kd [nM] |
| --- | --- |
| B1 | 8100 |
| B2 | 8800 |
| B3 | 700 |
| B4 | 1200 |

Biological target: T6, cynomolgus monkey FcγRIIa2 …
Experiment: SPR (BIACORE), antibody captured, FcγR analyte
Experimental: as §1

| Binder | Kd [nM] |
| --- | --- |
| B1 | 2700 |
| B2 | 4100 |
| B3 | 680 |
| B4 | 1500 |

Each binder was assayed against T9, human FcγRIIIaV extracellular domain, C-terminal His-tag (human, UniProt P08637 17-208) (assay: SPR (BIACORE), antibody captured, FcγR analyte).
T9 construct: also called FcgRIIIaV; not shown: His-tag added to C-terminus
Experimental: as §1

T9 sequence (P08637 17-208 F176V): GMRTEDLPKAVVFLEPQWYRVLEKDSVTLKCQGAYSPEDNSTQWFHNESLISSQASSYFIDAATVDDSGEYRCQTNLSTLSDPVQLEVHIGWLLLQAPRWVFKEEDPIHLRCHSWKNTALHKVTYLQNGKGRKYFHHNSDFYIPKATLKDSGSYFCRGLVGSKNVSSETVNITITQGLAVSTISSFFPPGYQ

| Binder | Kd [nM] |
| --- | --- |
| B1 | 7100 |
| B2 | 580 |
| B3 | 4500 |
| B4 | 14000 |

Biological target: T7, cynomolgus monkey FcγRIIb extracellular …
Experiment: SPR (BIACORE), antibody captured, FcγR analyte
Experimental: as §1

| Binder | Kd [nM] |
| --- | --- |
| B1 | 880 |
| B2 | 1700 |
| B3 | 160 |
| B4 | 530 |

The binders below were run against T1, human FcγRIIb extracellular domain, … (assay: SPR (BIACORE); KD of parent SG1 / KD of variant;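 note: relative to parent M103205H795-SG1 carrying the SG1 human heavy chain constant region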).
Experimental: as §1

| Binder | KD fold (SG1 = 1) [fold] |
| --- | --- |
| B1 | 1.8 |
| B2 | 1 |
| B3 | 10.2 |
| B4 | 5.6 |

Each binder was assayed against T8, cynomolgus monkey FcγRIIIaS … (assay: SPR (BIACORE); KD of parent SG1 / KD of variant;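 note: relative to parent M103205H795-SG1 carrying the SG1 human heavy chain constant region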).
Experimental: as §1

| Binder | KD fold (SG1 = 1) [fold] |
| --- | --- |
| B1 | 0.15 |
| B2 | 1 |
| B3 | 0.19 |
| B4 | 0.07 |

Biological target: T2, human FcγRIIaR extracellular domain, …
Experiment: SPR (BIACORE); KD of parent SG1 / KD of variant;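 note: relative to parent M103205H795-SG1 carrying the SG1 human heavy chain constant region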
Experimental: as §1

| Binder | KD fold (SG1 = 1) [fold] |
| --- | --- |
| B1 | 4.1 |
| B2 | 1 |
| B3 | 1.8 |
| B4 | 0.8 |

These binders were tested against T3, human FcγRIIaH extracellular domain, … (assay: SPR (BIACORE); KD of parent SG1 / KD of variant;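 note: relative to parent M103205H795-SG1 carrying the SG1 human heavy chain constant region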).
Experimental: as §1

| Binder | KD fold (SG1 = 1) [fold] |
| --- | --- |
| B1 | 2.9 |
| B2 | 1 |
| B3 | 2.2 |
| B4 | 1.4 |

Biological target: T4, cynomolgus monkey FcγRIIa3 …
Experiment: SPR (BIACORE); KD of parent SG1 / KD of variant
Experimental: as §1

| Binder | KD fold (SG1 = 1) [fold] |
| --- | --- |
| B1 | 2 |
| B2 | 1 |
| B3 | 6.2 |
| B4 | 3.1 |

Biological target: T5, cynomolgus monkey FcγRIIa1 …
Experiment: SPR (BIACORE); KD of parent SG1 / KD of variant
Experimental: as §1

| Binder | KD fold (SG1 = 1) [fold] |
| --- | --- |
| B1 | 1.5 |
| B2 | 1 |
| B3 | 5.4 |
| B4 | 3 |

Biological target: T6, cynomolgus monkey FcγRIIa2 …
Experiment: SPR (BIACORE); KD of parent SG1 / KD of variant
Experimental: as §1

| Binder | KD fold (SG1 = 1) [fold] |
| --- | --- |
| B1 | 1.7 |
| B2 | 1 |
| B3 | 6.1 |
| B4 | 3.2 |

These binders were tested against T9, human FcγRIIIaV extracellular domain, … (assay: SPR (BIACORE); KD of parent SG1 / KD of variant).
Experimental: as §1

| Binder | KD fold (SG1 = 1) [fold] |
| --- | --- |
| B1 | 0.09 |
| B2 | 1 |
| B3 | 0.18 |
| B4 | 0.04 |

Biological target: T7, cynomolgus monkey FcγRIIb extracellular …
Experiment: SPR (BIACORE); KD of parent SG1 / KD of variant
Experimental: as §1

| Binder | KD fold (SG1 = 1) [fold] |
| --- | --- |
| B1 | 2.2 |
| B2 | 1 |
| B3 | 11.1 |
| B4 | 5.3 |
